Patent US20090035321A1, “Intercellular adhesion molecules and their binding ligands” (Boehringer Ingelheim Pharmaceuticals, Inc., published 2009)

Key:
Assay in all cases: 35S-HRV14 on COS cells
ICAM-1 K8/E = ICAM-1 K8/E (human, UniProt P05362)
Description: (§1) COS cells were seeded into 10 cm tissue culture plates such that they would be 50% confluent by 16-24 hrs. COS cells were then washed once with TBS and incubated for 4 hrs with 4 ml RPMI containing 10% Nu sera (Collaborative) 5 pg/ml chloroquine, 3 μg of mutant plasmid and 200 μg/ml DEAE-dextran sulfate. Cells were then washed with 10% DMSO/PBS followed by PBS and cultured 16 hrs in culture media. Culture media was replaced with fresh media and at 48 hrs post transfection (OS cells were suspended by trypsin/EDTA (Gibco) treatment and divided into 2, 10 cm plates as well as 24 well tissue culture plates for HRV binding. At 72 hrs cells were harvested from 10 cm plates with 5 mM EDTA/HBSS and processed for adhesion to LFA-1 coated plastic and immunofluorescence.
(§2) Binding occurred in 1 hr at 35° C. in a 5% CO₂ atmosphere with horizontal rotation (100 rpm). Unbound [³⁵S] HRV14 was aspirated, COS cells were gently washed with 150 ml of HRV buffer and then solubilized with 1% SDS in PBS for scintillation counting.
(§3) In Table 25, the notation for the mutations uses the one-letter code for the wild-type sequence followed by a slash and the one-letter code for the corresponding mutant sequence. The position of the first amino acid within the sequence is indicated. Wild type residues precede the slash followed by the residues they were substituted for in the mutant. COS cells expressing ICAM-1 mutants were tested for adherence to LFA-1 coated plastic and for binding 35S met-labeled HRV14. […] Binding is presented as mean and standard error (SE) for multiple experiments (n). […] The specific linear fluorescence intensity (SLFI) of CL203 for each mutant is normalized to that of wild type CL203 SLFI (% WT) as discussed above. The SLFI of RR1/1, R6.5 and LB-2 SLFI is normalized to the CL203 SLFI of the mutant (% CL203) as described above.

ICAM-1 Q27/L = ICAM-1 Q27/L (human, UniProt P05362)
Description: as §1, §2, §3

ICAM-1 Q62PM/API = ICAM-1 Q62PM/API (human, UniProt P05362)
Description: as §1, §2, §3

ICAM-1 E90/Q = ICAM-1 E90/Q (human, UniProt P05362)
Description: as §1, §2, §3

ICAM-1 T20CS/ACT = ICAM-1 T20CS/ACT (human, UniProt P05362)
Description: as §1, §2, §3

ICAM-1 K50V/EL = ICAM-1 K50V/EL (human, UniProt P05362)
Description: as §1, §2, §3

ICAM-1 Y83/S = ICAM-1 Y83/S (human, UniProt P05362)
Description: as §1, §2, §3

ICAM-1 D71GQS/NGEL = ICAM-1 D71GQS/NGEL (human, UniProt P05362)
Description: as §1, §2, §3

ICAM-1 G101K/AN = ICAM-1 G101K/AN (human, UniProt P05362)
Description: as §1, §2, §3

ICAM-1 N56V/HM = ICAM-1 N56V/HM (human, UniProt P05362)
Description: as §1, §2, §3

ICAM-1 E254DE/KEK = ICAM-1 E254DE/KEK (human, UniProt P05362)
Description: as §1, §2, §3

ICAM-1 Q1/K = ICAM-1 Q1/K (human, UniProt P05362)
Description: as §1, §2, §3

ICAM-1 N118/Q = ICAM-1 N118/Q (human, UniProt P05362)
Description: as §1, §2, §3

ICAM-1 H152HGA/EEGS = ICAM-1 H152HGA/EEGS (human, UniProt P05362)
Description: as §1, §2, §3

ICAM-1 R149RD/EEG = ICAM-1 R149RD/EEG (human, UniProt P05362)
Description: as §1, §2, §3

ICAM-1 R125/E = ICAM-1 R125/E (human, UniProt P05362)
Description: as §1, §2, §3

ICAM-1 R166PQ/EPA = ICAM-1 R166PQ/EPA (human, UniProt P05362)
Description: as §1, §2, §3

ICAM-1 Y66/T = ICAM-1 Y66/T (human, UniProt P05362)
Description: as §1, §2, §3

ICAM-1 E127/R = ICAM-1 E127/R (human, UniProt P05362)
Description: as §1, §2, §3

ICAM-1 D60/N = ICAM-1 D60/N (human, UniProt P05362)
Description: as §1, §2, §3

ICAM-1 D60S/KL = ICAM-1 D60S/KL (human, UniProt P05362)
Description: as §1, §2, §3

ICAM-1 D26QPK/ALPE = ICAM-1 D26QPK/ALPE (human, UniProt P05362)
Description: as §1, §2, §3

ICAM-1 Y52/F = ICAM-1 Y52/F (human, UniProt P05362)
Description: as §1, §2, §3

ICAM-1 R13G/EA = ICAM-1 R13G/EA (human, UniProt P05362)
Description: as §1, §2, §3

ICAM-1 N240DS/KNA = ICAM-1 N240DS/KNA (human, UniProt P05362)
Description: as §1, §2, §3

ICAM-1 Y52/FA = ICAM-1 Y52/FA (human, UniProt P05362)
Description: as §1, §2, §3

ICAM-1 D229QR/HLE = ICAM-1 D229QR/HLE (human, UniProt P05362)
Description: as §1, §2, §3

ICAM-1 S177/G = ICAM-1 S177/G (human, UniProt P05362)
Description: as §1, §2, §3

ICAM-1 E90/K = ICAM-1 E90/K (human, UniProt P05362)
Description: as §1, §2, §3

B1: human rhinovirus 14 (HRV14) (other)
chain: GAQVSTQKSGSHENQNILTNGSNQTFTVINYYKDAASTSSAGQSLSMDPSKFTEPVKDLMLKGAPALNSPNVEACGYSDRVQQITLGNSTITTQEAANAVVCYAEWPEYLPDVDASDVNKTSKPDTSVCRFYTLDSKTWTTGSKGWCWKLPDALKDMGVFGQNMFFHSLGRSGYTVHVQCNATKFHSGCLLVVVIPEHQLASHEGGNVSVKYTFTHPGERGIDLSSANEVGGPVKDVIYNMNGTLLGNLLIFPHQFINLRTNNTATIVIPYINSVPIDSMTRHNNVSLMVIPIAPLTVPTGATPSLPITVTIAPMCTEFSGIRSKSIVPQGLPTTTLPGSGQFLTTDDRQSPSALPNYEPTPRIHIPGKVHNLLEIIQVDTLIPMNNTHTKDEVNSYLIPLNANRQNEQVFGTNLFIGDGVFKTTLLGEIVQYYTHWSGSLRFSLMYTGPALSSAKLILAYTPPGARGPQDRREAMLGTHVVWDIGLQSTIVMTIPWTSGVQFRYTDPDTYTSAGFLSCWYQTSLILPPETTGQVYLLSFISACPDFKLRLMKDTQTISQTVALTEGLGDELEEVIVEKTKQTVASISSGPKHTQKVPILTANETGATMPVLPSDSIETRTTYMHFNGSETDVECFLGRAACVHVTEIQNKDATGIDNHREAKLFNDWKINLSSLVQLRKKLELFTYVRFDSEYTILATASQPDSANYSSNLVVQAMYVPPGAPNPKEWDDYTWQSASNPSVFFKVGDTSRFSVPYVGLASAYNCFYDGYSHDDAETQYGITVLNHMGSMAFRIVNEHDEHKTLVKIRVYHRAKHVEAWIPRAPRALPYTSIGRTNYPKNTEPVIKKRKGDIKSY
modifications: [35S]-Met labeled
Q: B1 was tested. Which “HRV Binding %” value (ICAM-1 K8/E) did it give?
A: 132 % of wild type

Q: What about the “HRV Binding %” value (ICAM-1 Q27/L) of the same binder?
A: 57 % of wild type

Q: What about the “HRV Binding %” value (ICAM-1 Q62PM/API) of the same binder?
A: 182 % of wild type

Q: What about the “HRV Binding %” value (ICAM-1 E90/Q) of the same binder?
A: 157 % of wild type

Q: And the “HRV Binding %” value (ICAM-1 T20CS/ACT)?
A: 130 % of wild type

Q: And the “HRV Binding %” value (ICAM-1 K50V/EL)?
A: 10 % of wild type

Q: What about the “HRV Binding %” value (ICAM-1 Y83/S) of the same binder?
A: 86 % of wild type

Q: And the “HRV Binding %” value (ICAM-1 D71GQS/NGEL)?
A: 21 % of wild type

Q: And the “HRV Binding %” value (ICAM-1 G101K/AN)?
A: 140 % of wild type

Q: And the “HRV Binding %” value (ICAM-1 N56V/HM)?
A: 101 % of wild type

Q: What about the “HRV Binding %” value (ICAM-1 E254DE/KEK) of the same binder?
A: 99 % of wild type

Q: What about the “HRV Binding %” value (ICAM-1 Q1/K) of the same binder?
A: 78 % of wild type

Q: What about the “HRV Binding %” value (ICAM-1 N118/Q) of the same binder?
A: 110 % of wild type

Q: What about the “HRV Binding %” value (ICAM-1 H152HGA/EEGS) of the same binder?
A: 82 % of wild type

Q: What about the “HRV Binding %” value (ICAM-1 R149RD/EEG) of the same binder?
A: 139 % of wild type

Q: What about the “HRV Binding %” value (ICAM-1 R125/E) of the same binder?
A: 157 % of wild type

Q: What about the “HRV Binding %” value (ICAM-1 R166PQ/EPA) of the same binder?
A: 25 % of wild type

Q: And the “HRV Binding %” value (ICAM-1 Y66/T)?
A: 204 % of wild type

Q: And the “HRV Binding %” value (ICAM-1 E127/R)?
A: 131 % of wild type

Q: What about the “HRV Binding %” value (ICAM-1 D60/N) of the same binder?
A: 89 % of wild type

Q: What about the “HRV Binding %” value (ICAM-1 D60S/KL) of the same binder?
A: 1 % of wild type

Q: What about the “HRV Binding %” value (ICAM-1 D26QPK/ALPE) of the same binder?
A: 13 % of wild type

Q: What about the “HRV Binding %” value (ICAM-1 Y52/F) of the same binder?
A: 174 % of wild type

Q: What about the “HRV Binding %” value (ICAM-1 R13G/EA) of the same binder?
A: 3 % of wild type

Q: What about the “HRV Binding %” value (ICAM-1 N240DS/KNA) of the same binder?
A: 82 % of wild type

Q: What about the “HRV Binding %” value (ICAM-1 Y52/FA) of the same binder?
A: 125 % of wild type

Q: And the “HRV Binding %” value (ICAM-1 D229QR/HLE)?
A: 106 % of wild type

Q: What about the “HRV Binding %” value (ICAM-1 S177/G) of the same binder?
A: 66 % of wild type

Q: And the “HRV Binding %” value (ICAM-1 E90/K)?
A: 50 % of wild type
